Experimental data taken from patent US20240294646A1.

Legend:
[1] = target: Soluble FcγRIIb extracellular domain with C-terminal 10×His tag (UniProt P31994); experiment: SPR (Protocol 2): one-armed antibody captured on immobilised HER2, soluble receptor as analyte; fold over wild-type
[2] = target: Soluble FcγRIIaR extracellular domain with C-terminal 10×His tag (UniProt P12318); experiment: as above
[3] = target: Soluble FcγRIIb extracellular domain with C-terminal 10×His tag (UniProt P31994); experiment: SPR (Protocol 2); ratio of FcγRIIb fold to FcγRIIaR fold over wild-type
FcγRIIb [4] = target: FcγRIIb (UniProt P31994); experiment: SPR; trastuzumab FSA variant against FSA WT v21653
Target sequence in this assay (P31994 43-217): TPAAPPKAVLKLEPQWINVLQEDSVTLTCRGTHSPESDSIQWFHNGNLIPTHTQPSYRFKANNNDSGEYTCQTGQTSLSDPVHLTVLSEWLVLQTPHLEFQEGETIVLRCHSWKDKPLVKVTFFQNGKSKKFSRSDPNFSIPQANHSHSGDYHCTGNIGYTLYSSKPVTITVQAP

FcγRIIaR [5] = target: FcγRIIaR (UniProt P12318); experiment: SPR; trastuzumab FSA variant against FSA WT v21653
Chain of FcγRIIaR (P12318 34-217): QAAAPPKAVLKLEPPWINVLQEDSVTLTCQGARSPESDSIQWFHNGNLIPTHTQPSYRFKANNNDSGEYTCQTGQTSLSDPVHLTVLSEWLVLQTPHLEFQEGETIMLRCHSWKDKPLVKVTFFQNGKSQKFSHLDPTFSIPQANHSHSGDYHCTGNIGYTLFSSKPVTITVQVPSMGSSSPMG

FcγRIIb [6] = target: FcγRIIb (UniProt P31994); experiment: SPR; ratio of IIb-fold to IIaR-fold, FcγRIIaR as comparison receptor
Target sequence in this assay (P31994 43-217): as the sequence (P31994 43-217) above

C1q (human) [7] = target: C1q (human) (UniProt P02745); experiment: ELISA; antibody coated, human C1q added, signal as % of WT
Chain of C1q (human) (P02745 23-245 limits assumed, chain 1 of 3): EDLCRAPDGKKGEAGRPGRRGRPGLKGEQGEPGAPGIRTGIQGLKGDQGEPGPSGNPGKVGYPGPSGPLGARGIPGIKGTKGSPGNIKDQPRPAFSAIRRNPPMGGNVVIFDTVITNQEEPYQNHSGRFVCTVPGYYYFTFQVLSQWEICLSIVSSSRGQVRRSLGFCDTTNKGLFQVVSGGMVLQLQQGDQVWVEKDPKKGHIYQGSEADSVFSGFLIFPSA
Chain of C1q (human) (P02746 28-253 limits assumed, chain 2 of 3, further chain): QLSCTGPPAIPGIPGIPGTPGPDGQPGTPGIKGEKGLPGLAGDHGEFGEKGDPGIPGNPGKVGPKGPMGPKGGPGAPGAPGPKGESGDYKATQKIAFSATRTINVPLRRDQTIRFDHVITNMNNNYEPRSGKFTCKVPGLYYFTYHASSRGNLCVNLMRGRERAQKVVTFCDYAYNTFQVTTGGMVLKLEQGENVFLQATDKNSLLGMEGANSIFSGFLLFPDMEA
Chain of C1q (human) (P02747 29-245 limits assumed, chain 3 of 3, further chain): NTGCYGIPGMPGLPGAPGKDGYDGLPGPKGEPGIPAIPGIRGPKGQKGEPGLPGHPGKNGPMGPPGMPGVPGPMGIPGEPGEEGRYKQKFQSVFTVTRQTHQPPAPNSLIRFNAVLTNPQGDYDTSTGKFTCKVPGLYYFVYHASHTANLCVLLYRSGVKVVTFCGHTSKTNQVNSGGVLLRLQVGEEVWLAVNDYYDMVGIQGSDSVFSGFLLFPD

C1q (human) [8] = target: C1q (human) (UniProt P02745); experiment: C1q ELISA, antibody coated
FcγRIIb [9] = target: FcγRIIb (UniProt P31994); experiment: SPR (Protocol 1), one-armed antibody captured on HER2, receptor as analyte; fold over wild-type
Target sequence in this assay (P31994 43-217 limits assumed): as the sequence (P31994 43-217) above

FcγRIIaR [10] = target: FcγRIIaR (UniProt P12318); experiment: as above
FcγRIIb [11] = target: FcγRIIb (UniProt P31994); experiment: SPR (Protocol 1); IIb-Fold over IIaR-Fold
Target sequence in this assay (P31994 43-217 limits assumed): as the sequence (P31994 43-217) above

Chain of Soluble FcγRIIb extracellular domain with C-terminal 10×His tag (P31994 other isoform, or with tags, fused parts or gaps): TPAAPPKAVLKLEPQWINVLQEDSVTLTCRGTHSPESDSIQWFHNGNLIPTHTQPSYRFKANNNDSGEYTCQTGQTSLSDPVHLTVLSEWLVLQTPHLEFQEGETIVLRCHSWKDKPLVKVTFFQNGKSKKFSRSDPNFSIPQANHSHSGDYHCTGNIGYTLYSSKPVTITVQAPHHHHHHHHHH
Chain of Soluble FcγRIIaR extracellular domain with C-terminal 10×His tag (P12318 other isoform, or with tags, fused parts or gaps): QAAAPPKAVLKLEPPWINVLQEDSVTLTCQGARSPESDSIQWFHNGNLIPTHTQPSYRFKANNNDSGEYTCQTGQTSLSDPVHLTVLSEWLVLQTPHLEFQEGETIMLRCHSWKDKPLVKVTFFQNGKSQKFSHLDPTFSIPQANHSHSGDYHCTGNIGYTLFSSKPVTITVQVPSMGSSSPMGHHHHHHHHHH

Substance | IIb-fold (fold change in affinity over wild-type) (FcγRIIb [4]) [fold over WT] | IIaR-fold (fold change in affinity over wild-type) (FcγRIIaR [5]) [fold over WT] | IIb Selectivity (IIb-Fold/IIaR-Fold) (FcγRIIb [6]) | C1q Binding (% WT) (C1q (human) [7]) | other results
Variant 22120 (one-armed trastuzumab antibody, heterodimeric IgG1 Fc; A: L234F_G236N_H268Q_K274Q_A327G_A330K_P331S_K326D / B: L234F_G236D_S239D_V266L_S267A_H268D_K274Q_A327G_A330S_P331S_K326D) |  |  |  |  | IIb-fold (fold change in affinity over wild-type) [1]: 85.8 fold; IIaR-fold (fold change in affinity over wild-type) [2]: 9.7 fold; IIb/IIaR Selectivity (IIb-Fold/IIaR-Fold) [3]: 8.8
Variant 32265 (trastuzumab FSA; chain A S239A_strat1, chain B G330*K_strat1) (antibody) | 1120 | 36 | 31 | 224 | 
Variant 19585, Lead 2 (one-armed trastuzumab antibody, heterodimeric IgG1 Fc; A: L234F_G236N_H268Q_K274Q_A327G_A330K_P331S / B: L234F_G236D_S239D_V266L_S267A_H268D_K274Q_A327G_A330S_P331S) |  |  |  |  | IIb-fold (fold change in affinity over wild-type) [1]: 49.5 fold; IIaR-fold (fold change in affinity over wild-type) [2]: 4.1 fold; IIb/IIaR Selectivity (IIb-Fold/IIaR-Fold) [3]: 12
Variant 32274 (trastuzumab FSA; chain A P329A_strat2, chain B G237L_strat2) (antibody) | 95 | 4 | 26 | 2 | 
anti-CD19 (4G7) full-size antibody, control SELF (S267E_L328F) |  |  |  |  | EC50 (C1q (human) [8]): 0.36 nM
Variant 32262 (trastuzumab FSA; chain A L234T_strat1, chain B G330*K_strat1) (antibody) | 697 | 22 | 31 | 210 | 
Variant 32264 (trastuzumab FSA; chain A L235D_strat1, chain B G330*K_strat1) (antibody) | 557 | 17 | 33 | 146 | 
Variant 32278 (trastuzumab FSA; chain A S267A_strat2, chain B G237L_strat2) (antibody) | 155 | 9 | 17 | 1 | 
Variant 32254 (trastuzumab FSA; chain A S239H_strat1, chain B D329*I_F328*Y_strat1) (antibody) | 159 | 3 | 47 | 159 | 
anti-CD40 (Chi Lob 7/4) full-size antibody, control SELF (S267E_L328F) |  |  |  |  | C1q - Variant Binding Relative to WT (%) (C1q (human) [8]): 50.4%; C1q Concentration at Onset of Binding (C1q (human) [8]): 0.73 nM; EC50 (C1q (human) [8]): 4.73 nM
anti-CD19 (4G7) full-size antibody, wild-type CH2 (variant 21653) |  |  |  |  | EC50 (C1q (human) [8]): 0.31 nM
anti-CD19 (4G7) full-size antibody, Fc negative variant (L234A_L235A_D265S) |  |  |  |  | C1q - Variant Binding Relative to WT (%) (C1q (human) [8]): 0.61%; C1q Concentration at Onset of Binding (C1q (human) [8]): 29.6 nM
anti-CD40 (Chi Lob 7/4) full-size antibody, Fc negative variant (L234A_L235A_D265S) |  |  |  |  | C1q - Variant Binding Relative to WT (%) (C1q (human) [8]): 0%
Variant 32272 (trastuzumab FSA; chain A K330T_strat2, chain B G237L_strat2) (antibody) | 164 | 9 | 18 | 3 | 
anti-CD19 (4G7) full-size antibody, control v12 (symmetrical E233D_G237D_P238D_H268D_P271G_A330R) |  |  |  |  | C1q - Variant Binding Relative to WT (%) (C1q (human) [8]): 6.72%; C1q Concentration at Onset of Binding (C1q (human) [8]): 2.84 nM
Variant 32266 (trastuzumab FSA; chain A S239G_strat1, chain B G330*K_strat1) (antibody) | 1150 | 30 | 38 | 219 | 
Variant 22115 (one-armed trastuzumab antibody, heterodimeric IgG1 Fc; A: L234D_G236N_S267A_H268Q_K274Q_A327G_A330K_P331S / B: G236D_S239D_V266L_S267I_H268D_L234F_K274Q_A327G_A330K_P331S) |  |  |  |  | IIb-fold (fold change in affinity over wild-type) [1]: 2.6 fold; IIaR-fold (fold change in affinity over wild-type) [2]: 0.4 fold; IIb/IIaR Selectivity (IIb-Fold/IIaR-Fold) [3]: 5.9

Substance | IIb-fold (fold change in affinity over wild-type) (FcγRIIb [4]) [fold over WT] | IIaR-fold (fold change in affinity over wild-type) (FcγRIIaR [5]) [fold over WT] | IIb Selectivity (IIb-Fold/IIaR-Fold) (FcγRIIb [6]) | C1q Binding (% WT) (C1q (human) [7]) | other results
Variant 22116 (one-armed trastuzumab antibody, heterodimeric IgG1 Fc; A: L234D_G236N_S267A_K326D / B: G236D_S239D_V266L_S267A_H268D_K326D) |  |  |  |  | IIb-fold (fold change in affinity over wild-type) [1]: 31.9 fold; IIaR-fold (fold change in affinity over wild-type) [2]: 2.6 fold; IIb/IIaR Selectivity (IIb-Fold/IIaR-Fold) [3]: 12.1
Variant 32279 (trastuzumab FSA; chain A S267K_strat2, chain B G237L_strat2) (antibody) | 53 | 3 | 19 | 1 | 
anti-HER2 (trastuzumab) full-size antibody, wild-type CH2 (variant 21653) |  |  |  |  | C1q Concentration at Onset of Binding (C1q (human) [8]): 0.16 nM; EC50 (C1q (human) [8]): 0.88 nM
anti-CD40 (Chi Lob 7/4) full-size antibody, control v12 (symmetrical E233D_G237D_P238D_H268D_P271G_A330R) |  |  |  |  | C1q - Variant Binding Relative to WT (%) (C1q (human) [8]): 0%
Variant 22117 (one-armed trastuzumab antibody, heterodimeric IgG1 Fc; A: L234D_G236N_H268Q_K274Q_A327G_A330K_P331S / B: L234F_G236D_S239D_V266L_S267A_H268D_K274Q_A327G_A330S_P331S) |  |  |  |  | IIb-fold (fold change in affinity over wild-type) [1]: 28.7 fold; IIaR-fold (fold change in affinity over wild-type) [2]: 2.3 fold; IIb/IIaR Selectivity (IIb-Fold/IIaR-Fold) [3]: 12.7
Variant 32259 (trastuzumab FSA; chain A A237N_strat1, chain B G330*K_strat1) (antibody) | 452 | 14 | 33 | 192 | 
variant 16550, one-armed trastuzumab antibody (Scaffold 2), chain A E269K, chain B L234D |  |  |  |  | IIb-Fold (fold affinity over wild-type) (FcγRIIb [9]): 0.79 fold; IIaR-Fold (fold affinity over wild-type) (FcγRIIaR [10]): 0.63 fold; IIb/IIaR Selectivity (FcγRIIb [11]): 1.25
Variant 32267 (trastuzumab FSA; chain A S239H_strat1, chain B G330*K_strat1) (antibody) | 803 | 25 | 33 | 201 | 
Variant 32271 (trastuzumab FSA; chain A G237L_strat2, chain B G237L_strat2) (antibody) | 251 | 10 | 26 | 3 | 
Variant 19540, Lead 3 (one-armed trastuzumab antibody, heterodimeric IgG1 Fc; A: L234D_G236N_S267A / B: G236D_S239D_V266L_S267A_H268D) |  |  |  |  | IIb-fold (fold change in affinity over wild-type) [1]: 25.4 fold; IIaR-fold (fold change in affinity over wild-type) [2]: 1.8 fold; IIb/IIaR Selectivity (IIb-Fold/IIaR-Fold) [3]: 14
Variant 22119 (one-armed trastuzumab antibody, heterodimeric IgG1 Fc; A: L234F_G236N_H268Q_K274Q_A327G_A330K_P331S / B: L234F_G236D_S239D_V266L_S267I_H268D_K274Q_A327G_A330S_P331S) |  |  |  |  | IIb-fold (fold change in affinity over wild-type) [1]: 6.2 fold; IIaR-fold (fold change in affinity over wild-type) [2]: 0.8 fold; IIb/IIaR Selectivity (IIb-Fold/IIaR-Fold) [3]: 7.9
variant 16531, one-armed trastuzumab antibody (Scaffold 2), chain B E269K_S267I |  |  |  |  | IIb-Fold (fold affinity over wild-type) (FcγRIIb [9]): 0.27 fold; IIaR-Fold (fold affinity over wild-type) (FcγRIIaR [10]): 0.19 fold; IIb/IIaR Selectivity (FcγRIIb [11]): 1.45
Variant 32276 (trastuzumab FSA; chain A P329V_strat2, chain B G237L_strat2) (antibody) | 94 | 4 | 24 | 3 | 
Variant 32270 (trastuzumab FSA; chain A E272Y_strat2, chain B G237L_strat2) (antibody) | 196 | 11 | 18 | -1 | 
anti-CD40 (Chi Lob 7/4) full-size antibody, wild-type CH2 (variant 21653) |  |  |  |  | C1q Concentration at Onset of Binding (C1q (human) [8]): 0.41 nM; EC50 (C1q (human) [8]): 1.49 nM
Variant 32258 (trastuzumab FSA; chain A A237L_strat1, chain B G330*K_strat1) (antibody) | 476 | 11 | 44 | 201 | 
